The values below come from patent publication US20220175916A1, “METHODS AND COMPOSITIONS FOR TREATING CHRONIC EFFECTS OF RADIATION AND CHEMICAL EXPOSURE” (priority 2018, published 2022).

The subject of data set [1] is transgenic mouse model p16-3MR. The note with it: cited from earlier work; for Effect of elimination of senescent cells on running activity and strength: after doxorubicin or paclitaxel.
The test system of data set [2] is transgenic mouse model p16-3MR. The note with it: cited from earlier work.
The test system of data set [3] is breast cancer cells (MMTV-PyMT). The note with it: cited from earlier work.
The test system of data set [4] is transgenic mouse model p16-3MR. Conditions: cited from earlier work; for Induction of senescence in vivo: keratinocytes, endothelial cells, fibroblasts and smooth muscle cells; for p16INK4a expression in the skin: mice administered the agent.
The test system of data set [5] is human histiocytic lymphoma U937 cell line. Description: Senescence-associated β-galactosidase assay by fluorescent microscope imaging. The data set is classed as cell-based. On the procedure: Cells from the human histiocytic lymphoma U937 cell line were treated with doxorubicin, a chemotherapeutic agent, to induce senescence. Cells were treated with 0 μM, 0.01 μM, 0.1 μM or 1 μM doxorubicin for 3 days, or were treated with 0 μM, 0.1 μM or 1 μM doxorubicin for 6 days. Senescence was measured with a senescence-associated β-galactosidase assay by fluorescent microscope imaging.

Data set [6] has as its system murine embryonic fibroblasts, murine dermal fibroblasts and human dermal fibroblasts. Conditions: fibroblasts treated in vitro; cited from earlier work.
Data set [7] addresses carboxymethyl lysine conjugated to keyhole limpet hemocyanin (CML-KLH). Description: direct ELISA, CML-KLH coat 1 ug/mL, antibody at 50 ug/mL. A general note: In an ELISA, binding on a coated surface is turned into a signal by an enzyme label.
Data set [8] has the same target. The experiment in a line: direct ELISA, CML-KLH coat 1 ug/mL, antibody at 0.07 ug/mL.
The target is the same in data set [9]. The experiment in a line: direct ELISA, CML-KLH coat 1 ug/mL, antibody at 0.21 ug/mL.
Data set [10] has the same target. The experiment in a line: direct ELISA, CML-KLH coat 1 ug/mL, antibody at 0.62 ug/mL.
Data set [11] has the same target. The experiment in a line: direct ELISA, CML-KLH coat 1 ug/mL, antibody at 1.85 ug/mL.
Data set [12] shares this target. The experiment in a line: direct ELISA, CML-KLH coat 1 ug/mL, antibody at 5.56 ug/mL.
The target is the same in data set [13]. The experiment in a line: direct ELISA, CML-KLH coat 1 ug/mL, antibody at 16.67 ug/mL.
Data set [14] has the same target. The experiment in a line: direct ELISA, CML-KLH coat 1 ug/mL, antibody at 0 ug/mL (buffer control, background).
The next data set relates to CML-KLH. Description: Direct binding ELISA, CML-KLH coat. Conditions: for OD450 absorbance: CML-KLH Coat. From the text:
(§1) The binding of the murine (parental) and chimeric anti-AGE antibodies described in Example 3 was investigated by a direct binding ELISA. An anti-carboxymethyl lysine (CML) antibody (R&D Systems, MAB3247) was used as a control. CML was conjugated to KLH (CML-KLH) and both CML and CML-KLH were coated overnight onto an ELISA plate. HRP-goat anti-mouse Fc was used to detect the control and murine (parental) anti-AGE antibodies. HRP-goat anti-human Fc was used to detect the chimeric anti-AGE antibody.
(§2) The antigens were diluted to 1 μg/mL in 1× phosphate buffer at pH 6.5. A 96-well microtiter ELISA plate was coated with 100 μL/well of the diluted antigen and let sit at 4° C. overnight. The plate was blocked with 1×PBS, 2.5% BSA and allowed to sit for 1-2 hours the next morning at room temperature. The antibody samples were prepared in serial dilutions with 1×PBS, 1% BSA with the starting concentration of 50 μg/mL. Secondary antibodies were diluted 1:5,000. 100 μL of the antibody dilutions was applied to each well. The plate was incubated at room temperature for 0.5-1 hour on a microplate shaker. The plate was washed 3 times with 1×PBS. 100 μL/well diluted HRP-conjugated goat anti-human Fc secondary antibody was applied to the wells. The plate was incubated for 1 hour on a microplate shaker. The plate was then washed 3 times with 1×PBS. 100 μL HRP substrate TMB was added to each well to develop the plate. After 3-5 minutes elapsed, the reaction was terminated by adding 100 μL of 1N HCl. A second direct binding ELISA was performed with only CML coating. The absorbance at OD450 was read using a microplate reader.
(§3) The OD450 absorbance raw data for the CML and CML-KLH ELISA is shown in the plate map below. 48 of the 96 wells in the well plate were used. Blank wells in the plate map indicate unused wells.

Data set [15] is described as follows: Direct binding ELISA, CML coat.
Excerpt: as §1, §2, §3
The OD450 absorbance raw data for the CML-only ELISA is shown in the plate map below. 24 of the 96 wells in the well plate were used. Blank wells in the plate map indicate unused wells.

Regarding `CC1(C)CCC(c2ccc(Cl)cc2)=C(CN2CCN(c3ccc(C(=O)NS(=O)(=O)c4ccc(N[C@H](CCN5CCOCC5)CSc5ccccc5)c(S(=O)(=O)C(F)(F)F)c4)cc3)CC2)C1` [ABT-263], the “Effect of elimination of senescent cells on running activity and strength” value in data set [1] is “nearly reversed the decline in running activity and improved the loss of strength”.

Consider `Nc1nc(O)c2ncn(COC(CO)CO)c2n1` [GCV, ganciclovir], for which the “Effect of elimination of senescent cells on inflammatory factors, HPCs and cardiac function” value in [2] (after doxorubicin) is “reduced circulating inflammatory factors, promoted the functional recovery of HPCs and prevented cardiac dysfunction”. Besides, the “Survival and cancer metastases vs doxorubicin followed by vehicle” value in data set [3] (doxorubicin followed by GCV) was “increased survival and reduced cancer metastases”. Moreover, the “Tumor growth, metastases and metastatic foci vs vehicle” value in data set [3] (surgical removal of palpable tumors prior to treatment) was “smaller tumor growth, reduced cancer metastases and fewer metastatic foci”. The “Effect of elimination of senescent cells on running activity and strength” value in data set [1] was “nearly reversed the decline in running activity and improved the loss of strength”.

As for `N.N.[Cl][Pt][Cl]` [cisplatin], in data set [4], the “Induction of senescence in vivo” value is reported as “induced senescence in various cell types” and the “p16INK4a expression in the skin” value is reported as “elevated p^16INK4a expression in the skin”.

As to `COc1cccc2c1C(=O)c1c(O)c3c(c(O)c1C2=O)C[C@@](O)(C(=O)CO)C[C@@H]3O[C@H]1C[C@H](N)[C@H](O)[C@H](C)O1` [doxorubicin], the “Cells that fluoresce (senescence-associated β-galactosidase)” value in data set [5] (0.01 μM for 3 days) is recorded as “about 85%”; in data set [5] (0.1 μM for 3 days) it was “about 65%”; in data set [5] (0.1 μM for 6 days) it was “about 85%”; in data set [5] (1 μM for 3 days) it was “about 60%”; in [5] (1 μM for 6 days), “about 85%”. Moreover, in data set [5] (1 μM), the Cell death result is listed as “significant cell death”. Further, the “Concentration of peak senescence induction” value in data set [5] (treatment for 3-6 days) was 0.1 µM. Besides, in [6], the “Induction of cellular senescence (SA-β-gal, DNA synthesis, p16INK4a mRNA, SASP, p21, LaminB1)” value is recorded as “symptoms of cellular senescence”. In addition, in [4], the “Induction of senescence in vivo” value was “induced senescence in various cell types”. In addition, the “Effect on SASP factor genes, HPC function and cardiac function” value in data set [2] (genetically engineered mice) is “increased expression of SASP factor genes associated with inflammation, reduction of hematopoietic progenitor cell (HPC) function and reduction in cardiac function”. Besides, the “Chemotherapy-induced fatigue and strength” value in [1] (running activity) was “chemotherapy-induced fatigue, as measured by running activity, and decline in strength”.

As to `CC(=O)O[C@H]1C(=O)[C@@]2(C)[C@H]([C@H](OC(=O)c3ccccc3)[C@]3(O)C[C@H](OC(=O)[C@H](O)[C@@H](NC(=O)c4ccccc4)c4ccccc4)C(C)=C1C3(C)C)[C@]1(OC(C)=O)CO[C@@H]1C[C@@H]2O` [paclitaxel], the “Induction of cellular senescence (SA-β-gal, DNA synthesis, p16INK4a mRNA, SASP, p21, LaminB1)” value in data set [6] is “symptoms of cellular senescence”.

Turning to `Cn1nnc2c(C(N)=O)ncn2c1=O` [temozolomide], in [4], the “Induction of senescence in vivo” value is reported as “induced senescence in various cell types” and the “p16INK4a expression in the skin” value is reported as “elevated p^16INK4a expression in the skin”.

On to “carboxymethyl lysine MAb (Clone 318003), R&D Systems, catalog no. MAB3247 (antibody)”, for which the OD450 is 0.462 OD450 in data set [7]; 0.086 OD450 in data set [8]; 0.075 OD450 in data set [9]; 0.083 OD450 in data set [10]; 0.092 OD450 in data set [11]; 0.165 OD450 in data set [12]. Also, the OD450 in [13] was found to be 0.312 OD450; in data set [14], 0.09 OD450.

B1: Parental Anti-AGE: murine anti-AGE IgG2b antibody, heavy chain DNA SEQ ID NO: 12, kappa light chain DNA SEQ ID NO: 14 (antibody)
heavy: MDPKGSLSWRILLFLSLAFELSYGQVQLLQPGAELVKPGASVKLACKASGYLFTTYWMHWLKQRPGQGLEWIGEISPTNGRAYYNARFKSEATLTVDKSSNTAYMQLSSLTSEASAVYYCARAYGNYEFAYWGQGTLVTVSVAKTTPPSVYPLAPGCGDTTGSSVTLGCLVKGYFPESVTVTWNSGSLSSSVHTFPALLQSGLYTMSSSVTVPSSTWPSQTVTCSVAHPASSTTVDKKLEPSGPISTINPCPPCKECHKCPAPNLEGGPSVFIFPPNIKDVLMISLTPKVTCVVVDVSEDDPDVQISWFVNNVEVHTAQTQTHREDYNSTIRVVSTLPIQHQDWMSGKEFKCKVNNKDLPSPIERTISKIKGLVRAPQVYILPPPAEQLSRKDVSLTCLVVGFNPGDISVEWTSNGHTEENYKDTAPVLDSDGSYFIYSKLNMKTSKWEKTDSFSCNVRHEGLKNYYLKKTISRSPG
light: METDTLLLWVLLLWVPGSTGDVVMTQTPLSLPVSLGDQASISCRSRQSLVNSNGNTFLQWYLQKPGQSPKLLIYKVSLRFSGVPDRFSGSGSGTDFTLKISRVEAEDLGLYFCSQSTHVPPTFGGGTKLEIKRADAAPTVSIFPPSSEQLTSGGASVVCFLNNFYPKDINVKWKIDGSERQNGVLNSWTDQDSKDSTYSMSSTLTLTKDEYERHNSYTCEATHKTSTSPIVKSFNRNEC
modifications: Murine anti-AGE IgG2b heavy chain; Murine anti-AGE Kappa light chain
As to B1, the OD450 absorbance in the data set with CML-KLH (antibody 0.07 μg/mL) is 0.086; with CML-KLH (antibody 0.21 μg/mL) it was 0.066; in the data set with CML-KLH (antibody 0.62 μg/mL) it was 0.072; in the data set on CML-KLH (antibody 1.85 μg/mL), 0.063; in the data set on CML-KLH (antibody 5.56 μg/mL) it was 0.063; in the data set on CML-KLH (antibody 16.67 μg/mL), 0.067. Further, the OD450 absorbance in the data set with CML-KLH (antibody 50 μg/mL) turned out to be 0.092; in data set [15] (CML Coat (CML and CML-KLH ELISA), antibody 0.07 μg/mL) it was 0.096; in data set [15] (CML Coat (CML and CML-KLH ELISA), antibody 0.21 μg/mL), 0.096; in data set [15] (CML Coat (CML and CML-KLH ELISA), antibody 0.62 μg/mL) it was 0.085; in data set [15] (CML Coat (CML and CML-KLH ELISA), antibody 1.85 μg/mL), 0.099; in [15] (CML Coat (CML and CML-KLH ELISA), antibody 5.56 μg/mL), 0.115. Moreover, the OD450 absorbance in data set [15] (CML Coat (CML and CML-KLH ELISA), antibody 16.67 μg/mL) is reported as 0.13; in [15] (CML Coat (CML and CML-KLH ELISA), antibody 50 μg/mL), 0.142; in [15] (second, CML-only ELISA, antibody 0.068587 μg/mL), 0.055; in data set [15] (second, CML-only ELISA, antibody 0.205761 μg/mL) it was 0.056; in data set [15] (second, CML-only ELISA, antibody 0.617284 μg/mL) it was 0.103; in data set [15] (second, CML-only ELISA, antibody 1.851852 μg/mL), 0.078. Further, the OD450 absorbance in data set [15] (second, CML-only ELISA, antibody 5.555556 μg/mL) was 0.166; in [15] (second, CML-only ELISA, antibody 16.66667 μg/mL), 0.226; in [15] (second, CML-only ELISA, antibody 50 μg/mL), 0.165. Also, the “Binding to CML-KLH (in words)” value in the data set with CML-KLH (direct binding ELISA) is “very weak to no binding”. The “Binding to CML (in words)” value in data set [15] (direct binding ELISA) is on record as “very weak to no binding”.
